# Reference: IntAct's records for PubMed 17405859
# B1: Neuropilin-1 (Rattus norvegicus (Rat)), Q9QWJ9 (parent)
# chain: MERGLPLLCATLALALALAGAFRSDKCGGTIKIENPGYLTSPGYPHSYHPSEKCEWLIQAPEPYQRIMINFNPHFDLEDRDCKYDYVEVIDGENEGGRLWGKFCGKIAPSPVVSSGPFLFIKFVSDYETHGAGFSIRYEIFKRGPECSQNYTAPTGVIKSPGFPEKYPNSLECTYIIFAPKMSEIILEFESFDLEQDSNPPGGVFCRYDRLEIWDGFPEVGPHIGRYCGQKTPGRIRSSSGILSMVFYTDSAIAKEGFSANYSVLQSSISEDFKCMEALGMESGEIHSDQITASSQYGTNWSVERSRLNYPENGWTPGEDSYREWIQVDLGLLRFVTAVGTQGAISKETKKKYYVKTYRVDISSNGEDWITLKEGNKAIIFQGNTNPTDVVFGVFPKPLITRFVRIKPASWETGISMRFEVYGCKITDYPCSGMLGMVSGLISDSQITASNQGDRNWMPENIRLVTSRTGWALPPSPHPYINEWLQVDLGDEKIVRGVIIQGGKHRENKVFMRKFKIAYSNNGSDWKMIMDDSKRKAKSFEGNNNYDTPELRAFTPLSTRFIRIYPERATHSGLGLRMELLGCEVEVPTAGPTTPNGNPVDECDDDQANCHSGTGDDFQLTGGTTVLATEKPTIIDSTIQSEFPTYGFNCEFGWGSHKTFCHWEHDSHAQLRWRVLTSKTGPIQDHTGDGNFIYSQADENQKGKVARLVSPVVYSQSSAHCMTFWYHMSGSHVGTLRVKLHYQKPEEYDQLVWMVVGHQGDHWKEGRVLLHKSLKLYQVIFEGEIGKGNLGGIAVDDISINNHIPQEDCAKPTDLDKKNTEIKIDETGSTPGYEEGKGDKNISRKPGNVLKTLDPILITIIAMSALGVLLGAVCGVVLYCACWHNGMSERNLSALENYNFELVDGVKLKKDKLNPQSNYSEA
# Variants of: B1
# Settings: with vegfa_human VEGFA
row,effect of a mutation on the interaction,Variant
1,disrupting interaction strength,E348A
2,disrupting interaction strength,S346A
3,disrupting interaction strength,T349A
